Assay results as given in publication PMC6152618, “Antimicrobial Activity of Truncated and Polyvalent Peptides Derived from the FKCRRWQWRMKKGLA Sequence against Escherichia coli ATCC 25922 and Staphylococcus aureus ATCC 25923” (Molecules : A Journal of Synthetic Chemistry and Natural …, 2017).

Legend:
[1] = test system: Staphylococcus aureus ATCC 25923; type: cell-based; conditions: n = 2
Experimental: (§1) The MIC was determined using a microdilution assay. In brief, bacterial strains were incubated for 18 to 24 h at 37 °C in an Müller-Hinton (MH) broth until an optical density of 0.15 to 0.30 (620 nm) was obtained. Next, 90 μL of Mueller-Hinton broth (MHB) was mixed with […], and serial dilutions (200, 100, 50, 25, 12.5 and 6.2) were prepared in 96-well microplates (final volume 100 μL/well). Then, 10 μL of inoculum (2 × 10^6 CFU/mL) was added to each well. The final volume in each well was 100 μL. Then they were incubated for 24 h at 37 °C; the absorbance at 620 nm was measured using an Asys Expert Plus ELISA reader. For determining the MBC, a small sample was taken from each well using an inoculation loop, and then was spread on MH agar plates and incubated overnight at 37 °C. MBC was considered on the plate which presented no bacterial growth. Each of these tests was performed twice (n = 2).

[2] = test system: Escherichia coli ATCC 25922; type: cell-based; conditions: n = 2
Experimental: as §1

[3] = microdilution, Mueller-Hinton broth, 24 h at 37 °C, absorbance 620 nm
[4] = sample of each well spread on MH agar, overnight 37 °C, no bacterial growth

B1: BLF: bovine lactoferrin protein, control (protein, UniProt P24627 20-708, looked up)
Lactotransferrin: APRKNVRWCTISQPEWFKCRRWQWRMKKLGAPSITCVRRAFALECIRAIAEKKADAVTLDGGMVFEAGRDPYKLRPVAAEIYGTKESPQTHYYAVAVVKKGSNFQLDQLQGRKSCHTGLGRSAGWIIPMGILRPYLSWTESLEPLQGAVAKFFSASCVPCIDRQAYPNLCQLCKGEGENQCACSSREPYFGYSGAFKCLQDGAGDVAFVKETTVFENLPEKADRDQYELLCLNNSRAPVDAFKECHLAQVPSHAVVARSVDGKEDLIWKLLSKAQEKFGKNKSRSFQLFGSPPGQRDLLFKDSALGFLRIPSKVDSALYLGSRYLTTLKNLRETAEEVKARYTRVVWCAVGPEEQKKCQQWSQQSGQNVTCATASTTDDCIVLVLKGEADALNLDGGYIYTAGKCGLVPVLAENRKSSKHSSLDCVLRPTEGYLAVAVVKKANEGLTWNSLKDKKSCHTAVDRTAGWNIPMGLIVNQTGSCAFDEFFSQSCAPGADPKSRLCALCAGDDQGLDKCVPNSKEKYYGYTGAFRCLAEDVGDVAFVKNDTVWENTNGESTADWAKNLNREDFRLLCLDGTRKPVTEAQSCHLAVAPNHAVVSRSDRAAHVKQVLLHQQALFGKNGKNCPDKFCLFKSETKNLLFNDNTECLAKLGGRPTYEEYLGTEYVTAIANLKKCSTSPLLEACAFLTR
>50 µM: MIC S. aureus ATCC 25923 [1, 3] | MBC S. aureus ATCC 25923 [1, 4] | MIC E. coli ATCC 25922 [2, 3] | MBC E. coli ATCC 25922 [2, 4]
